Laboratory results as given in PMC9482650, “Quantitative fragmentomics allow affinity mapping of interactomes” (Nature Communications, 2022).

Key:
Assay in all cases: holdup assay
Set-up in all cases: key: below the threshold = too weak to quantify, mostly under pKd 3.1 to 4
Conditions in all cases: plain residues with an end cap or a label only (N-terminal biotin on a linker: ado-ado)
[1] = target: DLG4_2, P78352
[2] = target: GOPC, Q9HD26
[3] = target: DLG4_1, P78352
[4] = target: FRMPD4, Q14CM0
[5] = target: DLG2_3, Q15700
[6] = target: T1, LIN7C, Q9NUP9
T1 sequence (Q9NUP9 88-185, limits assumed, looked up): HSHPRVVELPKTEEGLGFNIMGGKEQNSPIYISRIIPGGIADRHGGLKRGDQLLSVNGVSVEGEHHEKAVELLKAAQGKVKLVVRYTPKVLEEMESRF

[7] = target: GRIP2_7, Q9C0E4
[8] = target: T2, HTRA4, P83105
T2 sequence (P83105 378-476, limits assumed, looked up): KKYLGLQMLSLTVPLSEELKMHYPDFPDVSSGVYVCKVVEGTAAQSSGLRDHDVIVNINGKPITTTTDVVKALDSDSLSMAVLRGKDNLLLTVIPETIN

[9] = target: HTRA1, Q92743
[10] = target: IL16_4, Q14005
[11] = target: FRMPD3, Q5JV73
[12] = target: DLG1_2, Q12959
[13] = target: IL16_3, Q14005
[14] = target: LAP2, Q96RT1
[15] = target: T3, PDZRN3_1, Q9UPQ7
T3 sequence (Q9UPQ7 244-349, limits assumed, looked up): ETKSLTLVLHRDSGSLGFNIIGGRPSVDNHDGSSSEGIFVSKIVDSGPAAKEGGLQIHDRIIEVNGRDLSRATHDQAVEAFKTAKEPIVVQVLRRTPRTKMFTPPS

[16] = target: MAGI2_5, Q86UL8
[17] = target: GRASP, Q7Z6J2
[18] = target: T4, LNX2_2, Q8N448
T4 sequence (Q8N448 334-432, limits assumed, looked up): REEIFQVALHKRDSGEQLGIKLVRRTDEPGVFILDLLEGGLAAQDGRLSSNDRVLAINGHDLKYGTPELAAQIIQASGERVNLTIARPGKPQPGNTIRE

[19] = target: MAGI2_2, Q86UL8
[20] = target: GORASP1, Q9BQQ3
[21] = target: TJP1_2, Q07157
[22] = target: GRIP2_4, Q9C0E4
[23] = target: MAGI1_1, Q96QZ7
[24] = target: MAGI2_3, Q86UL8
[25] = target: T5, ARHGAP21, Q5T5U3
T5 sequence (Q5T5U3 45-169, limits assumed, looked up): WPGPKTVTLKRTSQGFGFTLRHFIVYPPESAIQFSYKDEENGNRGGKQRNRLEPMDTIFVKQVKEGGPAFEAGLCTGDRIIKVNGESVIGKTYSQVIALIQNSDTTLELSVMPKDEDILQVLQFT

[26] = target: LDB3, O75112
[27] = target: Inadl_8, Q8NI35
[28] = target: LNX1_1, Q8TBB1
[29] = target: Inadl_5, Q8NI35
[30] = target: PDLIM1, O00151
[31] = target: Inadl_4, Q8NI35
[32] = target: DLG4_3, P78352
[33] = target: T6, APBA2_2, Q99767
T6 sequence (Q99767 654-744, limits assumed, looked up): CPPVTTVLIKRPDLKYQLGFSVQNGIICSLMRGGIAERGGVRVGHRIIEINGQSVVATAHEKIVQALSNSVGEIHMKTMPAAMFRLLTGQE

Chain of DLG4_1, P78352 (P78352 62-152): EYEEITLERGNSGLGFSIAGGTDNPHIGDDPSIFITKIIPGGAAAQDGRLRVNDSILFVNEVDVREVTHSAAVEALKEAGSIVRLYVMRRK
Chain of LNX1_1, Q8TBB1 (Q8TBB1 261-371): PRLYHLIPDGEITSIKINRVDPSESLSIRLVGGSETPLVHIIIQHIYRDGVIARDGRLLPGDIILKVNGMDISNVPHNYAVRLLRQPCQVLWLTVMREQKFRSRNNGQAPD
Chain of HTRA1, Q92743 (Q92743 360-477): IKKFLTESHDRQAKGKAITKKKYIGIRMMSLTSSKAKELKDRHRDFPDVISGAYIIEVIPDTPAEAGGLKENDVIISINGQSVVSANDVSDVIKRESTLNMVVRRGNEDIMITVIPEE
Chain of LDB3, O75112 (O75112 1-94): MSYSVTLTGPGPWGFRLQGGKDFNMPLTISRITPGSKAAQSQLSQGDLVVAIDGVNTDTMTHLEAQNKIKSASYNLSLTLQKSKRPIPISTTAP
Chain of MAGI1_1, Q96QZ7 (Q96QZ7 1-106): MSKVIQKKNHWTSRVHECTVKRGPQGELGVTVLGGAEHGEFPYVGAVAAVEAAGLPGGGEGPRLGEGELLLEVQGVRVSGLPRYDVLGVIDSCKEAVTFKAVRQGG
Chain of FRMPD4, Q14CM0 (Q14CM0 67-160): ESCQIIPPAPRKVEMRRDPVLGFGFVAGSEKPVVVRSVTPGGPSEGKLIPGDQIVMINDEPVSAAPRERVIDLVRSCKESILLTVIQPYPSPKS
Chain of GRIP2_4, Q9C0E4 (Q9C0E4 446-548): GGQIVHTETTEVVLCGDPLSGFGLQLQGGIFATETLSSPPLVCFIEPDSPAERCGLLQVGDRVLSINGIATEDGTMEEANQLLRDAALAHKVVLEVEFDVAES
Chain of Inadl_4, Q8NI35 (Q8NI35 547-651): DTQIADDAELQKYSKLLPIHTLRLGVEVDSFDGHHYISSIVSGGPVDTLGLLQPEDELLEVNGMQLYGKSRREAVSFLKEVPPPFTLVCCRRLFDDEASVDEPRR
Chain of FRMPD3, Q5JV73 (Q5JV73 12-100): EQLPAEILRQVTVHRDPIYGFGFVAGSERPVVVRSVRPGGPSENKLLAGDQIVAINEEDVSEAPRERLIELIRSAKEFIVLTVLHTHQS
Chain of DLG4_3, P78352 (P78352 306-403): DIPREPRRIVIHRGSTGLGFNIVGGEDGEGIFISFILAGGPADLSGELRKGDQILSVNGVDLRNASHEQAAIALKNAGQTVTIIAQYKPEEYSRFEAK
Chain of DLG4_2, P78352 (P78352 155-259): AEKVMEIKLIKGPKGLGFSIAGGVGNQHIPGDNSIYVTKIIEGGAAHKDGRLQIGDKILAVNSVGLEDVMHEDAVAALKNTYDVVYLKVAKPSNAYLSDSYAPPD
Chain of GORASP1, Q9BQQ3 (Q9BQQ3 1-208): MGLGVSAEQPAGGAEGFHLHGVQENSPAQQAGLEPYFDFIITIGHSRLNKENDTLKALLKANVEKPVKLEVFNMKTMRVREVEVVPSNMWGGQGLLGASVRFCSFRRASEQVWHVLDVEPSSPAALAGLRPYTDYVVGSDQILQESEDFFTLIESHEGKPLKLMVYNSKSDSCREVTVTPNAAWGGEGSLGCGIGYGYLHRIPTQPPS
Chain of MAGI2_2, Q86UL8 (Q86UL8 410-522): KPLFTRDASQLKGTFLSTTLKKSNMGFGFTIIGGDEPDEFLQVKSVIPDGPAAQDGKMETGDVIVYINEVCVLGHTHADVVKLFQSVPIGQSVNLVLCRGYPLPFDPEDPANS
Chain of IL16_3, Q14005 (Q14005 1107-1207): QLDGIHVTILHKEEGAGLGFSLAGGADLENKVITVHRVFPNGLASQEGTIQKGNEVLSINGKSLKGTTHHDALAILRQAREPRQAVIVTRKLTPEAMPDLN
Chain of DLG1_2, Q12959 (Q12959 314-412): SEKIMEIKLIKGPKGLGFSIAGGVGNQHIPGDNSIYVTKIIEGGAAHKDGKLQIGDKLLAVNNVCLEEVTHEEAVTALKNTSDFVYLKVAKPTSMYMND
Chain of PDLIM1, O00151 (O00151 1-87): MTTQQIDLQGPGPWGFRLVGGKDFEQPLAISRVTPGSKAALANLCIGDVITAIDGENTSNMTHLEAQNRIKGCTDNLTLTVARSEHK
Chain of GRIP2_7, Q9C0E4 (Q9C0E4 934-1023): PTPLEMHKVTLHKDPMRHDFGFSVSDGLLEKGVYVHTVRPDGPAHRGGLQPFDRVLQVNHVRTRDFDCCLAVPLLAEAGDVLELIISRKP
Chain of MAGI2_3, Q86UL8 (Q86UL8 600-682): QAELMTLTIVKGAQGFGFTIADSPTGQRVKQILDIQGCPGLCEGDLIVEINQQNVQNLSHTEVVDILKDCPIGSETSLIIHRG
Chain of TJP1_2, Q07157 (Q07157 181-274): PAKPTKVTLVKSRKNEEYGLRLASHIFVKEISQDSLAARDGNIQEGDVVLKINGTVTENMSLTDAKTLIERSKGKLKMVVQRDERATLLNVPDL
Chain of GRASP, Q7Z6J2 (Q7Z6J2 96-193): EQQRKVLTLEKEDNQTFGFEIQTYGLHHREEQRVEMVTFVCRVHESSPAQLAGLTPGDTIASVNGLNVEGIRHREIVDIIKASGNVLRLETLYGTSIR
Chain of LAP2, Q96RT1 (Q96RT1 other isoform, or with tags, fused parts or gaps): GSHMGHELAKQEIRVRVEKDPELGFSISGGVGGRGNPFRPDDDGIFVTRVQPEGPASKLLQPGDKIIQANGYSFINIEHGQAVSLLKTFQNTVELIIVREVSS
Chain of Inadl_5, Q8NI35 (Q8NI35 673-780): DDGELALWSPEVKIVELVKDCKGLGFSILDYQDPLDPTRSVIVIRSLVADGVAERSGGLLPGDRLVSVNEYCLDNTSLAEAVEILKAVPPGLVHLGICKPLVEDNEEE
Chain of Inadl_8, Q8NI35 (Q8NI35 1425-1530): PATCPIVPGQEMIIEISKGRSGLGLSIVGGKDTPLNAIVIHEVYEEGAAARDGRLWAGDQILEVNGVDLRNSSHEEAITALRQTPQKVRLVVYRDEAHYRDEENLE
Chain of IL16_4, Q14005 (Q14005 1229-1329): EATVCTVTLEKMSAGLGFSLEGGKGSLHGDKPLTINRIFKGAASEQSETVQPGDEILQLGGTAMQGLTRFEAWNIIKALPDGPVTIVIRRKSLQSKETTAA
Chain of MAGI2_5, Q86UL8 (Q86UL8 915-1017): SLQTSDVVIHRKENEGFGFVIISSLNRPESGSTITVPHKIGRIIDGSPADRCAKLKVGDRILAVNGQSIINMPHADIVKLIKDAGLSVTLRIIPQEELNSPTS

B1: GAGE12J, A6NER3 (peptide)
chain: PEEGKKQSQC
pKd [1]: 3.59 | pKd [2]: below the threshold | pKd [3]: below the threshold | pKd [4]: 3.48 | pKd [5]: 3.61 | pKd [6]: below the threshold | pKd [7]: below the threshold | pKd [8]: below the threshold | pKd [9]: below the threshold | pKd [10]: 3.69 | pKd [11]: below the threshold | pKd [12]: below the threshold | pKd [13]: below the threshold | pKd [14]: below the threshold | pKd [15]: below the threshold | pKd [16]: below the threshold | pKd [17]: below the threshold | pKd [18]: below the threshold | pKd [19]: 3.67 | pKd [20]: below the threshold | pKd [21]: below the threshold | pKd [22]: below the threshold | pKd [23]: below the threshold | pKd [24]: 3.58 | pKd [25]: below the threshold | pKd [26]: below the threshold | pKd [27]: 3.5 | pKd [28]: below the threshold | pKd [29]: below the threshold | pKd [30]: below the threshold | pKd [31]: below the threshold | pKd [32]: 3.75 | pKd [33]: below the threshold

B2: DUSP10, Q9Y6W6 (peptide)
chain: PKLMGVETVV
pKd [1]: 5.47 | pKd [2]: 4.25 | pKd [3]: 5.16 | pKd [4]: below the threshold | pKd [5]: 4.21 | pKd [6]: 3.81 | pKd [7]: below the threshold | pKd [8]: 3.74 | pKd [9]: 4.6 | pKd [10]: below the threshold | pKd [11]: below the threshold | pKd [12]: 5.61 | pKd [13]: below the threshold | pKd [14]: 4.03 | pKd [15]: 3.69 | pKd [16]: 4.06 | pKd [17]: 3.78 | pKd [18]: 5.21 | pKd [19]: 4.73 | pKd [20]: 4.36 | pKd [21]: 3.67 | pKd [22]: below the threshold | pKd [23]: 3.52 | pKd [24]: 4.17 | pKd [25]: 3.73 | pKd [26]: below the threshold | pKd [27]: 3.5 | pKd [28]: 4.06 | pKd [29]: 3.56 | pKd [30]: below the threshold | pKd [31]: below the threshold | pKd [32]: 4.01 | pKd [33]: below the threshold

B3: ITK, Q08881 (peptide)
chain: QLAEIAESGL
pKd [1]: 3.79 | pKd [2]: 3.73 | pKd [3]: below the threshold | pKd [4]: 3.71 | pKd [5]: below the threshold | pKd [6]: below the threshold | pKd [7]: 3.47 | pKd [8]: below the threshold | pKd [9]: below the threshold | pKd [10]: 3.8 | pKd [11]: below the threshold | pKd [12]: below the threshold | pKd [13]: 3.74 | pKd [14]: below the threshold | pKd [15]: 3.89 | pKd [16]: below the threshold | pKd [17]: 3.69 | pKd [18]: below the threshold | pKd [19]: below the threshold | pKd [20]: 3.53 | pKd [21]: below the threshold | pKd [22]: 3.49 | pKd [23]: 3.62 | pKd [24]: 3.58 | pKd [25]: 3.87 | pKd [26]: below the threshold | pKd [27]: 3.52 | pKd [28]: 3.9 | pKd [29]: 3.58 | pKd [30]: 3.56 | pKd [31]: below the threshold | pKd [32]: 3.62 | pKd [33]: 3.48
